What all share (type): cell-based, human
In one data set the test system is DUX4 protein. The experiment in a line: Western blot of V5-tagged DUX4 protein in co-transfected HEK293 cells. Particulars: CMV.DUX4-FL/CMV.eGFP, HEK293, molar ratio 1 to 3, eGFP normalizer, relative to U6-milacZ, N = 3-8.
The next data set has as its system pri-mir-675. In words: TaqMan QRT-PCR of pri-mir-675 from transfected constructs in HEK293 cells. Particulars: 24 h post-transfection. The source says:
(§1) RNA Extraction. RNA from HEK293 cells was extracted for Northern blot assay and QPCR. The miRVANA miRNA isolation kit (ThermoFisher Scientific) was used according to manufacturer's directions to extract total RNA encompassing small RNAs, such as miRNAs. To extract RNA from C57BL/6 skeletal muscles, cryopreserved muscles were crushed under suboptimal temperatures using liquid nitrogen and using mortar and pestle. Crushed muscles were then lysed using […] of miRVANA miRNA isolation kit lysis buffer, a TissueLyser and 1.0 mm zirconia beads (Biospec). Muscle was homogenized at 30 Hz for 30 sec with 10 sec rest. This was repeated 3 times.
(§2) TaqMan Gene Expression Assay. QRT-PCR was carried out to quantify the expression of pri-mir-675, mir-675-5p and mi405 using TaqMan probes (ThermoFisher Scientific). Experiments were started by eliminating genomic DNA from the RNA preparations, and then cDNA was generated using the High-Capacity cDNA Reverse Transcription Kit (Applied Biosystems) following manufacturer's instructions. Within the same cDNA reaction, 1×RT random hexamer primers were used to generate the cDNA for RPL13A, used as a reference gene, and for pri-mir-675. To generate the cDNA for mir-675, the RT mir-675 reverse primer provided by ThermoFisher Scientific was used. For mi405, the mi405 qPCR protocol was done as it was previously described [Wallace et al., Mol. Ther. Methods Clin. Dev. 8: 121-30 (2018)]. To quantify mir-675 and mi405 levels, RNA was extracted using the total RNA protocol for the mirVana miRNA Isolation Kit (Ambion) from HEK293 cells. cDNA was generated using the High-Capacity cDNA Reverse Transcription Kit (Applied Biosystems) using a mix of random hexamer primers and specific reverse primer for pri-mir-675 and mir-675-5p. For mi405, 200 nM of the stem-loop forming primer (5′-[…]-3′) (SEQ ID NO: 144) was also used for the RT step. A custom TaqMan assay (Applied Biosystems) including 1.5 μM of Forward primer (5′-[…]-3′) (SEQ ID NO: 145), 0.7 μM of Reverse primer (5′-GTGCAGGGTCCGAGGT-3′) (SEQ ID NO: 146), and 0.2 μM of mi405 probe (5′-6FAM-ATACGACGTCCAGGAT-3′) (SEQ ID NO: 147) was then run using the CFX Connect Real Time system apparatus (Bio-Rad). RPL13A (Mm02526700_g1; Applied Biosystems) served as the reference gene. The TaqMan gene expression assay consisted of using the TaqMan Gene Expression Master mix and TaqMan probes purchased from ThermoFisher Scientific. 1× of probe was mixed with 1× of the TaqMan Gene Expression Master mix (ThermoFisher Scientific), and with 20 ng of cDNA. The mir-675- and mi405-specific primers and probes were designed to quantify only the mir-675-5p and mi405 mature sequence (see TaqMan Gene Expression Master mix protocol).

Data set [1] has as its system mir-675-5p. In words: ddPCR of all mature mir-675-5p sequences (TaqMan Advanced miRNA cDNA synthesis) in HEK293 cells. How it is done:
Digital Droplet PCR (ddPCR). For mir-675 and mi405 constructs, RNA extraction was carried out as described for QPCR above. For cDNA synthesis, the TaqMan advanced cDNA synthesis kit (Thermo Fisher) was used and cDNA was prepared by following manufacturer's instructions. ddPCR was carried out using 1× ddPCR Supermix for probes (No dUTP) (Bio-Rad), 1× commercially available mir-675 advanced TaqMan probe, or a custom made mi405 advanced TaqMan probe (ThermoFisher) and 50 ng of cDNA. For DUX4 cDNA synthesis, the High-Capacity cDNA Reverse Transcription Kit (Applied Biosystems) was used according to manufacturer's instructions. Within the same cDNA reaction, 1×RT random hexamer primers and 25 pmoles of the Oligo(dT) primer were used to generate cDNA for DUX4 and DUX4-responsive biomarkers and for mouse Rpl13A, used as a reference gene. To quantify DUX4, the ddPCR reaction mixture (20 μL) contained 1× ddPCR Evagreen Supermix (Bio-Rad), 1 μM of forward and reverse DUX4 primers (Sharma et al., J Genet Syndr Gene Ther 2016 August; 7(4):303. doi: 10.4172/2157-7412.1000303. Epub 2016 Aug. 8), and 50 ng of cDNA. To quantify Rpl13A and DUX4-responsive biomarkers (Trim36 and Wfdc3), the 1× ddPCR Supermix for probes (No dUTP) and TaqMan specific probes were used for each of the genes. Droplets were generated using the Automatic Droplet generator QX200 AutoDG (Bio-Rad), the reactions were amplified in a C1000 Touch™ Thermal Cycler with 96-Deep Well Reaction Module (Bio-Rad). Cycling conditions were set up following the QX200 ddPCR Evagreen Supermix protocol. All assays are compatible with an annealing temperature of 58° C. Droplets were then read using the QX200 droplet reader (Bio-Rad). Finally, data were analyzed using the QuantaSoft analysis software (Bio-Rad). For quantification, each reaction of 20 μL was estimated to give at least 10,000 acceptable droplets.
In order to quantify the level of all these mature sequences, the TaqMan advanced miRNA cDNA synthesis method that uses universal reverse transcription (RT) chemistry to synthesize cDNA templates that can be quantified using the TaqMan Advanced miRNA probes was used. In this method, most of the processed mature miRNA sequences were quantified.
Background: In qPCR the cycle at which signal appears reflects the starting amount.

Data set [2] has as its system mir-675-5p. The experiment in a line: Small-transcript northern blot of mir-675 processing in HEK293 cells. Conditions: HEK293; anti-mir-675-5p biotinylated probe. The source says: Small-Transcript Northern Blots. […] (SEQ ID NO: 148)).
Data set [3] has as its system mir-675-5p. The experiment in a line: TaqMan QRT-PCR of mature mir-675-5p from transfected constructs in HEK293 cells. Conditions: HEK293, 24 h post-transfection; for mir-675-5p levels compared to U6.mir-675: 23 mer mature mir-675-5p.
Source text: as §1, §2

The source of these data is patent publication US20240093191A1, “COMPOSITIONS AND METHODS FOR TREATING DISEASE ASSOCIATED WITH DUX4 OVEREXPRESSION” (RESEARCH INSTITUTE AT NATIONWIDE CHILDREN'S HOSPITAL, priority 2021, published 2024).

B1: U6.mir-675NF: U6 mir-675 construct with no flanking sequences (nucleic acid)
DNA: TCTAGAGATCCGACGCCGCCATCTCTAGGCCCGCGCCGGCCCCCTCGCACAGACTTGTGGGAGAAGCTCGGCTACTCCCCTGCCCCGGTTAATTTGCATATAATATTTCCTAGTAACTATAGAGGCTTAATGTGCGATAAAAGACAGATAATCTGTTCTTTTTAATACTAGCTACATTTTACATGATAGGCTTGGATTTCTATAAGAGATACAAATACTAAATTATTATTTTAAAAAACAGCACAAAAGGAAACTCACCCTAACTGTAAAGTAATTGTGTGTTTTGAGACTATAAATATCCCTTGGAGAAAAGCCTTGTTTGCCCCAGGGTCTGGTGCGGAGAGGGCCCACAGTGGACTTGGTGACGCTGTATGCCCTCACCGCTCAGCCCCTGGGGTTTTTT
For B1, in the data set with DUX4 protein, the “Average inhibition efficiency (%) of DUX4 protein levels” value (“Average inhibition efficiency (%)” below) is recorded as 69 ± 6 (N = 5) %. Further, the “pri-mir-675 levels compared to U6.mir-675” value in the data set with pri-mir-675 is 213±28%. Besides, in the data set on mir-675-5p [1], the “fold change of all mature mir-675-5p sequences compared to U6.mir-675” value (shortened to “fold change”) was 176±60%. The “mature mir-675-5p bands on northern blot” value in the data set on mir-675-5p [2] is “detectable mir-675 mature sequences”.

B2: U6.mir-675-2.3.1: mir-675 construct with modified 5' and 3' flanking sequences (nucleic acid)
DNA: TCTAGAGATCCGACGCCGCCATCTCTAGGCCCGCGCCGGCCCCCTCGCACAGACTTGTGGGAGAAGCTCGGCTACTCCCCTGCCCCGGTTAATTTGCATATAATATTTCCTAGTAACTATAGAGGCTTAATGTGCGATAAAAGACAGATAATCTGTTCTTTTTAATACTAGCTACATTTTACATGATAGGCTTGGATTTCTATAAGAGATACAAATACTAAATTATTATTTTAAAAAACAGCACAAAAGGAAACTCACCCTAACTGTAAAGTAATTGTGTGTTTTGAGACTATAAATATCCCTTGGAGAAAAGCCTTGTTTGAATCACACTGCCCCAGGGTCTGGTGCGGAGAGGGCCCACAGTGGACTTGGTGACGCTGTATGCCCTCACCGCTCAGCCCCTGGGGATAACTCCTAATCACACTTTTTT
For B2, the “Average inhibition efficiency (%)” value in the data set with DUX4 protein is 58 ± 8 (N = 3) %. Further, the “mir-675-5p levels compared to U6.mir-675” value in the data set on mir-675-5p [3] is given as 241±29%. For the same molecule, the “pri-mir-675 levels compared to U6.mir-675” value with pri-mir-675 came to 274±49%. Moreover, the “fold change” value in the data set on mir-675-5p [1] came out at 187±40%.

B3: U6.mir-675H: mir-675 construct with modified flanking sequences and UA dinucleotide (nucleic acid)
DNA: TCTAGAGATCCGACGCCGCCATCTCTAGGCCCGCGCCGGCCCCCTCGCACAGACTTGTGGGAGAAGCTCGGCTACTCCCCTGCCCCGGTTAATTTGCATATAATATTTCCTAGTAACTATAGAGGCTTAATGTGCGATAAAAGACAGATAATCTGTTCTTTTTAATACTAGCTACATTTTACATGATAGGCTTGGATTTCTATAAGAGATACAAATACTAAATTATTATTTTAAAAAACAGCACAAAAGGAAACTCACCCTAACTGTAAAGTAATTGTGTGTTTTGAGACTATAAATATCCCTTGGAGAAAAGCCTTGTTTGACCGTTTAAACCCCAGGGTCTGGTGCGGAGAGGGCCCACAGTGGACTTGGTGACGCTGTATGCCCTCACCGCTCAGCCCCTGGGGCGCACGCCAGTTTTTT
Regarding B3, in the data set on DUX4 protein, the “Average inhibition efficiency (%)” value is given as 89±6%. The “Average inhibition efficiency (%)” value in the data set on DUX4 protein (listed as U6-mir-675H) was 89 ± 6 (N = 3) %. Besides, in the data set with mir-675-5p [3], the “mir-675-5p levels compared to U6.mir-675” value amounted to 774±93% and the “ratio of mir-675-5p/pri-mir-675 compared to U6.mir-675” value worked out at 303±57%. Also, in the data set on pri-mir-675, the “pri-mir-675 levels compared to U6.mir-675” value turned out to be 256±37%. The “fold change” value in the data set on mir-675-5p [1] worked out at 201±38%.
